Measured values: patent US20250333496A1 (Novo Nordisk, published 2025)
Where a chain is given by its changes, count along the chain named. Blank lines part the entries; values can stand above or below the binder they belong to.

Key:
[1] = target: T1, recombinant human HPC4-tagged IL-6 (human, UniProt P05231 30-212); experiment: SPR, HPC4-IL-6 captured on anti-HPC4 antibody, VHH injected, 25 C, 1:1 model
T1 construct: captured on an anti-HPC4 antibody in SPR; also called HPC4-human IL6
Experimental: Binding of purified anti-IL-6 VHHs to recombinant human HPC4-tagged IL-6 (SEQ ID NO: 98) was probed by Surface Plasmon Resonance (SPR).
IL-6 was captured at a flow rate of 10 μL/min for 30 seconds.
Subsequently, concentration series of VHH polypeptides according to Table 33 were injected at a flow rate of 50 μL/min for 200 seconds to allow for binding to […] followed by 600 seconds running buffer (10 mM HEPES, 150 mM NaCl, 5 mM CaCl₂, 0.05% (v/v) Surfactant P20, 1 mg/mL bovine serum albumin, pH 7.4) injection allowing dissociation from IL-6. The running buffer was also used for dilution of anti-IL-6 VHHs and IL-6. Regeneration of the chip was achieved using a regeneration buffer consisting of 50 mM EDTA in running buffer without CaCl₂, 30 seconds contact time, and a 30 μL/min flow rate applied twice to the surface. The binding data were collected at 25° C. at either a Biacore instrument (Cytiva AB, Uppsala) or a Bruker SPR32 (Bruker Daltonics). Data were analysed according to a 1:1 model using either BiaEvaluation or Biacore Insight Evaluation (Cytiva AB, Uppsala) or Bruker Analyser (Bruker Daltonics).

[2] = target: T2, human IL-6 (mature hIL-6) (human, UniProt P05231 30-212); experiment: cell-based or functional assay
[3] = target: T2, human IL-6 (mature hIL-6); experiment: cell-based or functional assay; remark: listed apart in the source

T1 sequence (P05231 other isoform, or with tags, fused parts or gaps limits assumed): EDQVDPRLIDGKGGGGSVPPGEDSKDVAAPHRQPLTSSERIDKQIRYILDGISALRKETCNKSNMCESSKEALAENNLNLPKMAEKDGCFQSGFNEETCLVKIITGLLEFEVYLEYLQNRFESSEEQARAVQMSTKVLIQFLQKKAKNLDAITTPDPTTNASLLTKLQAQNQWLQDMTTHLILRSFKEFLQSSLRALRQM
T2 sequence (P05231 30-212): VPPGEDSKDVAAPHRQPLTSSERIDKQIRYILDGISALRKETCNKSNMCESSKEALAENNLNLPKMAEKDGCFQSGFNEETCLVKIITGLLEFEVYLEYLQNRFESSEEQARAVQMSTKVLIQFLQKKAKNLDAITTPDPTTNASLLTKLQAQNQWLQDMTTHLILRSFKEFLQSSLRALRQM

Kd [1]: 0.0543 nM
koff [1]: 0.000216 s⁻¹
kon [1]: 7.36e+06 M⁻¹ s⁻¹
IC 50 (nM), reporter gene assay, 1% HSA [2]: 0.021 nM
B1: Compound 12 (VHH)
VHH: EVQLVESGGGLVQPGGSLQLSCAASGFTFSNYWMYWVRQAPGQGLEWVSGINTGGSTPDYADSVKGRFAISRDNAKNTLYLQMDSLRPEDTAVYYCAADTPRVFRLDHYSPLGQGTQVTVSS
modifications: Chem. 24 (C16 diacid substituent) on Cys in position 4 and on Cys in position 6 of the extension (SEQ ID NO: 72)
notes: Polypeptide derivative; extension E2 at the C-terminus of the VHH; also called VHH_1.17-E2 with 2x Chem. 24

Kd [1]: 0.00721 nM
koff [1]: 0.000147 s⁻¹
kon [1]: 2.03e+07 M⁻¹ s⁻¹
IC 50 (nM), reporter gene assay, 0% HSA [2]: 0.029 nM
B2: Polypeptide_22 (VHH)
VHH: EVQLVESGGGLVQPGGSLKLSCTTSGRRFSEYAVGWFRQGPGKEREFVADIGEQAENTWYAESVLGRFTISRDDAKNTVYLQMDSLKPEDTAVYYCAADKYGVGGNAQGYYDSWGQGTQVTVSS
notes: VHH_1.2 with C-terminal His tag extension E1; also called [VHH_1.2]-E1

IC50 (nM), STAT3-luc reporter gene assay [3]: 0.053 nM
Relative IC50 to Reference Polypeptide_29 [3]: 1.5 fold
B3: Polypeptide_51 (VHH)
VHH: B2 VHH with L11W, G40A, Q82E, S85G

IC50 (nM), STAT3-luc reporter gene assay [3]: 0.051 nM
Relative IC50 to Reference Polypeptide_29 [3]: 1.5 fold
B4: Polypeptide_49 (VHH)
VHH: B2 VHH with E1Q, G40A, Q82E, S85G

IC50 (nM), STAT3-luc reporter gene assay [3]: 0.15 nM
Relative IC50 to Reference Polypeptide_29 [3]: 4.4 fold
B5: Polypeptide_54 (VHH)
VHH: B2 VHH with G40A, Q54N, Q82E, S85G

IC50 (nM), STAT3-luc reporter gene assay [3]: 0.055 nM
Relative IC50 to Reference Polypeptide_29 [3]: 1.6 fold
B6: Polypeptide_52 (VHH)
VHH: B2 VHH with R28T, G40A, Q82E, S85G

IC50 (nM), STAT3-luc reporter gene assay [3]: 0.05 nM
Relative IC50 to Reference Polypeptide_29 [3]: 1.5 fold
B7: Polypeptide_53 (VHH)
VHH: B2 VHH with E31S, G40A, Q82E, S85G

IC50 (nM), STAT3-luc reporter gene assay [3]: 0.047 nM
Relative IC50 to Reference Polypeptide_29 [3]: 1.4 fold
B8: Polypeptide_58 (VHH)
VHH: B2 VHH with G40A, D74N, Q82E, S85G

IC50 (nM), STAT3-luc reporter gene assay [3]: 0.08 nM
Relative IC50 to Reference Polypeptide_29 [3]: 2.3 fold
B9: Polypeptide_57 (VHH)
VHH: B2 VHH with G40A, L65K, Q82E, S85G

IC50 (nM), STAT3-luc reporter gene assay [3]: 0.278 nM
Relative IC50 to Reference Polypeptide_29 [3]: 8.1 fold
B10: Polypeptide_55 (VHH)
VHH: B2 VHH with G40A, E56D, Q82E, S85G

IC50 (nM), STAT3-luc reporter gene assay [3]: 0.049 nM
Relative IC50 to Reference Polypeptide_29 [3]: 1.4 fold
B11: Polypeptide_50 (VHH)
VHH: B2 VHH with V2L, G40A, Q82E, S85G

IC50 (nM), STAT3-luc reporter gene assay [3]: 0.168 nM
Relative IC50 to Reference Polypeptide_29 [3]: 4.9 fold
B12: Polypeptide_56 (VHH)
VHH: B2 VHH with G40A, E62H, Q82E, S85G

IC50 (nM), STAT3-luc reporter gene assay [3]: 0.13 nM
Relative IC50 to Reference Polypeptide_29 [3]: 3.8 fold
B13: Polypeptide_62 (VHH)
VHH: B2 VHH with G40A, Q82E, S85G, N106G

IC50 (nM), STAT3-luc reporter gene assay [3]: 0.054 nM
Relative IC50 to Reference Polypeptide_29 [3]: 1.6 fold
B14: Polypeptide_61 (VHH)
VHH: B2 VHH with G40A, Q82E, S85G, K100S

IC50 (nM), STAT3-luc reporter gene assay [3]: 0.057 nM
Relative IC50 to Reference Polypeptide_29 [3]: 1.7 fold
B15: Polypeptide_60 (VHH)
VHH: B2 VHH with G40A, Q82E

IC50 (nM), STAT3-luc reporter gene assay [3]: 0.043 nM
Relative IC50 to Reference Polypeptide_29 [3]: 1.2 fold
B16: Polypeptide_59 (VHH)
VHH: B2 VHH with G40A, Q82E, D84N, S85G
